Holding throughout (assay): ITC 25 C, TWO LABS merged (one a row), salt differs
One experiment addresses UBE2L3 (Homo sapiens (Human), UniProt P68036).
The target in another experiment is T1, UBE2N (Homo sapiens (Human), UniProt P61088).
T1 chain: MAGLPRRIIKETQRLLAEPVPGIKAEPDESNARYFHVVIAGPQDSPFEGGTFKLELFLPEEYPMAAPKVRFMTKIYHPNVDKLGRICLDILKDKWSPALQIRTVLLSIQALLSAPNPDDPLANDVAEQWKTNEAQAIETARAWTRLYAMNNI

For a further experiment, the target named is UBE2D2 (Homo sapiens (Human), UniProt P62837).

From publication PMC5941314 (2018) come the findings set out here.

Broadly, the Kd is the equilibrium constant for the complex coming apart.

Chain of UBE2D2 (P62837 whole entry, looked up): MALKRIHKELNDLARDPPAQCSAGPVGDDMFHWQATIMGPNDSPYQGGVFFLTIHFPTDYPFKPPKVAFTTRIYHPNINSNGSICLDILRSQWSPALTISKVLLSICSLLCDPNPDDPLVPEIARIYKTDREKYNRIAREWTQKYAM
Chain of UBE2L3 (P68036 whole entry): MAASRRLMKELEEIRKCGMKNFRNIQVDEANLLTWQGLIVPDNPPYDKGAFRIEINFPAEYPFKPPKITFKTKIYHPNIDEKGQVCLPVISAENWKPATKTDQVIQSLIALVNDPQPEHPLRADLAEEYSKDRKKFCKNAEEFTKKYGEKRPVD

B1: Arkadia (protein)
chain: KQDGEEGTEEDTEEKCTICLSILEEGEDVRRLPCMHLFHQVCVDQWLITNKKCPICRVDIEAQLPSES
Consider B1, for which the figures for the Kd in the experiment with UBE2L3, in the experiment with UBE2N and with UBE2D2 were 27.3 µM, 264 µM and 32 µM, respectively.
